Data: paper PMC5895073, “Cell polarity protein Spa2 coordinates Chs2 incorporation at the division site in budding yeast” (PLoS Genetics, 2018)

Molecular target: T1, Strep-tag-Chs2-V377I-215-629 (S. cerevisiae, UniProt P14180 215-629, V377I)
T1 construct: Chs2 (chitin synthase II), S. cerevisiae, residues 215-629 with the hypermorphic change V377I; also called Strep-tag-Chs2-215-629-V377I; source: E. coli Rosetta, in cell extract
T1 sequence (looked up): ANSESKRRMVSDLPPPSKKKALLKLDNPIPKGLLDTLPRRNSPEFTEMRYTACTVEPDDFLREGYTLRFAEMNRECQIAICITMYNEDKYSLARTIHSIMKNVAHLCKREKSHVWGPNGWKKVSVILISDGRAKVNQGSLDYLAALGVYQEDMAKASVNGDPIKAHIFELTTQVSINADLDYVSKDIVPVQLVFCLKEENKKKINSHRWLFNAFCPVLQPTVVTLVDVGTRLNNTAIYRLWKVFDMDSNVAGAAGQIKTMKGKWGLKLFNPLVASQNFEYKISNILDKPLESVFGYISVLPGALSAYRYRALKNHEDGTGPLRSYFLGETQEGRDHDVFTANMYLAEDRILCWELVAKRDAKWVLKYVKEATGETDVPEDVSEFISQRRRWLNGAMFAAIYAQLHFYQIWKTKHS
Assay: pull-down; pairs of E. coli cultures mixed, one cell extract; Strep-tagged protein isolated on Strep-Tactin Superflow resin, eluted with 2.5 mM d-desthiobiotin; immunoblot with anti-Strep and anti-His
Conditions: partners not purified

amount of Inn1 co-purified, fold over that with Strep-tag-Chs2-215-629: ~3 fold
B1: 6His-tagged-Inn1 (natural protein, S. cerevisiae, UniProt P53901 1-409, looked up)
chain: MSEEVWNGNQGILSVYVSKARDLPNLNKLDKQNVMLRLRIAHMTRASNTLHRAGQNPVFHYLEKFDITPEIKPLMYVEVYCDRRKKSPLPIGRCEIDLLNAIRADPKEGYCTWYELKRSGDEFAGTIFIELTFTPKVPRLNRDDLNKEMDRLDSSMAMRPIPPLPTESEYDYVHGSTMRQITPQCVSTSHEDKDEGQPYRNGNVFSMSSKSDTAVLANSNDPIILPPTFSASMGTTSTLETNDTAISNTSNTKFHFANLRKLKEKINIFKNPDSSTNNCQNESNKVDIEALQKAIGVTSLSYDEDDDDDDENDAFYSSSHRVSHNYNQPPLPPIPTRDDMSNYSSSRNTPLVRRDRPSRLDSSSPNSHPHPSGLNSPKLPPLPTTSNSNFNSRKNSMSPTRKRPPPRLS
notes: Inn1, S. cerevisiae; also called 6His-Inn1; source: E. coli Rosetta, in cell extract
